These results are taken from CN113929777A (DONGGUAN PENGZHI BIOTECHNOLOGY CO LTD, dated 2022).

The experiment has as its target T1, 重组肌红蛋白(自产) (UniProt P02144 2-154).
T1 construct: The ELISA names it 重组肌红蛋白 and the BLI assay names it MYO蛋白; both are treated as one molecule; also called MYO蛋白; Mb
T1 sequence (looked up): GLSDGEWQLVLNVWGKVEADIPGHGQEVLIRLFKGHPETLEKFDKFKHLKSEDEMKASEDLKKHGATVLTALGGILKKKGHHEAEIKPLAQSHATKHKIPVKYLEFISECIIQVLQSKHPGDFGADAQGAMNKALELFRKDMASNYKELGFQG
Kind of experiment: BLI, antibody captured on AMC sensors, MYO protein in serial dilution.

B1: 实施例1的肌红蛋白单克隆抗体(WT) (antibody, mouse IgG1, kappa, V domains shown)
VH: QIQLVQSGPELKKPGETVKISCKASGYTYTEFSVHWVKQAPGKGLKWMGWINSETSEPTYGDDFKGRFAFSLETSASAAYLQINNLKNEDSATYFCARRAYYLFGPFTYWGQGTLVTVSA
VL: DIVLTQSPASLAVSLGQRATISCRASKSVDFNGDSYMNWHQQKPGQPPKLLIYAASQRESGIPARFSGSGSGTDFTLNIHPVEEEDAATYYCQHSNEEPYTFGGGTKLEIKR
notes: Recombinant antibody cloned from hybridoma 5G9 and expressed in CHO cells; Detected with goat anti-mouse IgG-HRP; also called WT抗体; 5G9 recombinant antibody
Molecule B1 had a Kd of 4.56 nM, a koff of 0.000118 s⁻¹ and a kon of 25900 M⁻¹ s⁻¹.
